Laboratory results reported in US20210380675A1 (Kyowa Kirin, published 2021).
One block for each binder: values may come before it.

Assays:
[1] = biological target: T1, cynomolgus IL-36α, truncated (cynomolgus macaque (Macaca fascicularis), UniProt Q9UHA7 14-158 (human entry), limits assumed); assay: cell-based or functional assay
T1 chain: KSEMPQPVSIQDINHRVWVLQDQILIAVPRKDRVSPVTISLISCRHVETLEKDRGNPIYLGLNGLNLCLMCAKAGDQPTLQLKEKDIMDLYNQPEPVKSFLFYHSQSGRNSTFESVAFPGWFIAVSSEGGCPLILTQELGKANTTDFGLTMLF

[2] = biological target: T2, human IL-36α(R12), truncated (human, UniProt Q9UHA7 6-158); assay: cell-based or functional assay
T2 chain: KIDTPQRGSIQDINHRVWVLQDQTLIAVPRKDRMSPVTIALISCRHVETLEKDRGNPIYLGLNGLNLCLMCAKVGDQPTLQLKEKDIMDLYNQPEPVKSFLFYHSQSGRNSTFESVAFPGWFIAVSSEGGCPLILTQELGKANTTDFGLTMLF

human IL-36γ, truncated [3] = biological target: T3, human IL-36γ, truncated (human, UniProt Q9NZH8 18-169); assay: SPR, Biacore, 1:1 Langmuir fit; heads of c3 and c4 printed swapped
T3 construct: Bought from R&D Systems (cat 6835-IL); also called human IL-36 gamma; hIL-36gamma
T3 sequence: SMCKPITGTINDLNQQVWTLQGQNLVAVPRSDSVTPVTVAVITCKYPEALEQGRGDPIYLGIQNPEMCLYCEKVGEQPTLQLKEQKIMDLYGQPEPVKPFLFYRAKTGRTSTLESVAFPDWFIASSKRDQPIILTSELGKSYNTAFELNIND
Procedure: (§1) The humanized antibodies obtained in Example 6 were tested for their binding to recombinant human or cynomolgus macaque IL36a and IL-36γ in Biacore assays. The association time was set to 60 seconds, and the final dissociation time was set to 600 seconds. Equilibrium dissociation constant KD (kd/ka) of exemplary antibodies was determined using a 1:1 Langmuir fit model (see Tables 17-18 below).

[4] = biological target: T1, cynomolgus IL-36α, truncated; assay: as above
Procedure: as §1

[5] = biological target: T4, cynomolgus IL-36γ, truncated (cynomolgus macaque (Macaca fascicularis), UniProt Q9NZH8 18-167 (human entry), limits assumed); assay: as above
T4 construct: Untagged after removal of the His-SUMO tag; also called cynomolgus IL-36 gamma; cyIL-36gamma
T4 chain: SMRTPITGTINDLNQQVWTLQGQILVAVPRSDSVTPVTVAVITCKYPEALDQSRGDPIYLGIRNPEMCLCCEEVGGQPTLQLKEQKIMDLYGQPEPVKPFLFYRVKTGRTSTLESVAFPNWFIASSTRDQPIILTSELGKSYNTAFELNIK
Procedure: as §1

[6] = biological target: T2, human IL-36α(R12), truncated; assay: as above
Procedure: as §1

human IL-36γ, truncated [7] = biological target: T3, human IL-36γ, truncated; assay: cell-based or functional assay
[8] = biological target: T2, human IL-36α(R12), truncated; assay: cell-based or functional assay
human IL-36γ, truncated [9] = biological target: T3, human IL-36γ, truncated; assay: cell-based or functional assay; remark: listed apart in the source
human IL-36γ, truncated [10] = biological target: T3, human IL-36γ, truncated; assay: cell-based or functional assay; remark: listed apart in the source
[11] = biological target: T4, cynomolgus IL-36γ, truncated; assay: cell-based or functional assay
human IL-36γ, truncated [12] = biological target: T3, human IL-36γ, truncated; assay: SPR, Biacore T200, antibody on chip, IL-36 as analyte, 1:1 Langmuir fit
How it was run: (§2)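 Single-cycle kinetics: mouse/human chimeric or mouse antibodies captured (~200 RU) via anti-human or anti-mouse Fc on CM5, then increasing IL-36 concentrations injected, 300 s association, 1200 s dissociation. Alternatively ~2000 RU antibody amine-coupled, analyte 30 μL/min for 420 s, 3600 s dissociation, 25° C; double-referenced sensorgrams.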

[13] = biological target: T2, human IL-36α(R12), truncated; assay: as above
How it was run: as §2

human IL-36γ, truncated [14] = biological target: T3, human IL-36γ, truncated; assay: cell-based or functional assay; remark: listed apart in the source
human IL-36γ, truncated [15] = biological target: T3, human IL-36γ, truncated; assay: SPR, Biacore, 1:1 Langmuir fit
Procedure: as §1

[16] = biological target: T1, cynomolgus IL-36α, truncated; assay: SPR, Biacore, 1:1 Langmuir fit
Procedure: as §1

[17] = biological target: T4, cynomolgus IL-36γ, truncated; assay: SPR, Biacore, 1:1 Langmuir fit
Procedure: as §1

[18] = biological target: T2, human IL-36α(R12), truncated; assay: SPR, Biacore, 1:1 Langmuir fit
Procedure: as §1

[19] = biological target: T2, human IL-36α(R12), truncated; assay: ELISA binding screen and HaCaT assay
[20] = biological target: T1, cynomolgus IL-36α, truncated; assay: ELISA binding screen and HaCaT assay
[21] = biological target: T4, cynomolgus IL-36γ, truncated; assay: ELISA binding screen and HaCaT assay

IC50 of IL-8 secretion, HaCaT, 10 nM cynomolgus IL-36α, FIG. 2A [1]: 5.3 nM | IC50 of IL-8 secretion, HaCaT, 10 nM human IL-36α, FIG. 1B [2]: 6.49 nM | koff (human IL-36γ, truncated [3]): 0.00034 s⁻¹ | kon (human IL-36γ, truncated [3]): 388000 M⁻¹ s⁻¹ | koff [4]: 0.000338 s⁻¹ | kon [4]: 465000 M⁻¹ s⁻¹ | koff [5]: 0.000427 s⁻¹ | kon [5]: 493000 M⁻¹ s⁻¹ | koff [6]: 0.000362 s⁻¹ | kon [6]: 274000 M⁻¹ s⁻¹ | IC50 of IL-8 secretion, primary human keratinocytes, 8.4 nM human IL-36γ, FIG. 4D (human IL-36γ, truncated [7]): 13.3 nM | IC50 of IL-8 secretion, primary human keratinocytes, 8 nM human IL-36α, FIG. 4B [8]: 13.4 nM | IC50 (read off the curve) (human IL-36γ, truncated [9]): ~8 nM | IC50 of IL-8 secretion, HaCaT, 10 nM human IL-36γ, FIG. 1E (human IL-36γ, truncated [10]): 7.39 nM | IC50 of IL-8 secretion, HaCaT, 10 nM cynomolgus IL-36γ, FIG. 2C [11]: 15.6 nM | Kd (human IL-36γ, truncated [12]): 3.81 nM | koff (human IL-36γ, truncated [12]): 0.00032 s⁻¹ | kon (human IL-36γ, truncated [12]): 84000 M⁻¹ s⁻¹ | Kd [13]: 2.53 nM | koff [13]: 0.000309 s⁻¹ | kon [13]: 122000 M⁻¹ s⁻¹ | IC50 of IL-8 secretion, primary human monocytes, 6 nM human IL-36γ, FIG. 5C (human IL-36γ, truncated [14]): 13.2 nM | Kd (human IL-36γ, truncated [15]): 0.877 nM | Kd [16]: 0.727 nM | Kd [17]: 0.865 nM | Kd [18]: 1.32 nM
B1: 144D464A (antibody, V domains shown)
VH: EVQLQQSGAELVKPGASVRLSCTASGFNIKDTYIHWVKQRPEQGLEWIGRIDPAIGTTRYDPKFQGKATITTDTSSDTVHLQFSSLTSEDTAVYYCARLHYFGNNFFFDYWGQGTTLTVSS
VL: QAVVTQESALTTSPGEAVTLTCRSSSGAVTTSNYANWVQEKPDHLFAGLIGGTNDRAPGVPARFSGSLIGDKAALTITGAQTEDEAIYFCALWFSNHWVFGGGTKLTVL
notes: Mouse monoclonal from hybridoma; mouse IgG heavy and lambda light chain; also called mouse antibody 144D464A

IC50 of IL-8 secretion, HaCaT, 10 nM cynomolgus IL-36α, FIG. 2B [1]: 63.2 nM | IC50 of IL-8 secretion, HaCaT, 10 nM human IL-36γ, FIG. 1F (human IL-36γ, truncated [10]): 11.9 nM | IC50 of IL-8 secretion, HaCaT, 10 nM cynomolgus IL-36γ, FIG. 2D [11]: 17.1 nM | binding result [19]: binds | Kd (human IL-36γ, truncated [12]): 1000 nM | koff (human IL-36γ, truncated [12]): 0.00208 s⁻¹ | kon (human IL-36γ, truncated [12]): 2070 M⁻¹ s⁻¹ | IC50 of IL-8 secretion, primary human monocytes, 6 nM human IL-36γ, FIG. 5C (human IL-36γ, truncated [14]): 15.7 nM | IC50 of IL-8 secretion, primary human monocytes, 50 nM human IL-36γ, FIG. 5D (human IL-36γ, truncated [14]): 40 nM
B2: 144L472A (antibody, V domains shown)
VH: EVQLQQSGAELVKPGASVKLSCTVSGFNIKDTYMYWVKQRPEQGLEWIGRIDPANGYAKYDPKFQGKATLTADTSSNTAYLQLSSLTSEDTAVYFCARFHWYDSAFYFDFWGQGTTLTVSS
VL: QAVVTQESALTTSPGETVTLTCRSSSGAVTTSNYANWVQEKPDHLFTGLIGGTNNRAPGVPARFSGSLIGDKAALTITGAQTEDEAIYFCGLWYSNHWVFGGGTKLTVL
notes: Mouse monoclonal from hybridoma; mouse IgG heavy and lambda light chain

IC50 of IL-8 secretion, HaCaT, 10 nM human IL-36α, FIG. 1A [2]: 49.5 nM | IC50 of IL-8 secretion, HaCaT, 10 nM human IL-36γ, FIG. 1D (human IL-36γ, truncated [10]): 5.12 nM | binding result [20]: binds | binding result [21]: binds | Kd (human IL-36γ, truncated [12]): 1.08 nM | koff (human IL-36γ, truncated [12]): 0.000676 s⁻¹ | kon (human IL-36γ, truncated [12]): 625000 M⁻¹ s⁻¹ | Kd [13]: 18 nM | koff [13]: 0.00184 s⁻¹ | kon [13]: 102000 M⁻¹ s⁻¹
B3: 144D666C (antibody, V domains shown)
VH: EVQLQQSGAELVKPGASVKLTCTASGFNIKDTYIYWVKQRPAQGLEWIGRIDPANAYTKFDPKFQGKATLTADTSSNTAYLQLSSLTSEDTAVYYCTRFHWYGSSFFFDYWGQGTTLTVSS
VL: QAVVTQESALTTSPGETVTLTCRSSTGAVTTSNYANWVQEKPDHLFTGLIGGTDNRPPGVPARFSGSLIGDKAALTITGAQTEDEAIYFCALWYSNLWVFGGGTKLTVL
notes: as for B2
